Assay results reported in the supplement of paper PMC10065799, “High-throughput profiling of sequence recognition by tyrosine kinases and SH2 domains using bacterial peptide display” (eLife, 2023).

Each sequence was assayed against EPHB2 (UniProt P29323) (assay: phosphorylation enrichment, bacterial display (enrichment ratio); higher = better substrate or ligand; peptides without Tyr show the background).
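Further: 11-residue human phosphosite peptides and single-mutation variants displayed on the E. coli surface, counted by deep sequencing, each peptide's frequency after selection divided by its frequency in the unselected input library; frequency after pTyr selection over input frequency; kinase dosed for 20-30% of maximal phosphorylation in three min.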

EPHB2, sequence (P29323 whole entry, looked up): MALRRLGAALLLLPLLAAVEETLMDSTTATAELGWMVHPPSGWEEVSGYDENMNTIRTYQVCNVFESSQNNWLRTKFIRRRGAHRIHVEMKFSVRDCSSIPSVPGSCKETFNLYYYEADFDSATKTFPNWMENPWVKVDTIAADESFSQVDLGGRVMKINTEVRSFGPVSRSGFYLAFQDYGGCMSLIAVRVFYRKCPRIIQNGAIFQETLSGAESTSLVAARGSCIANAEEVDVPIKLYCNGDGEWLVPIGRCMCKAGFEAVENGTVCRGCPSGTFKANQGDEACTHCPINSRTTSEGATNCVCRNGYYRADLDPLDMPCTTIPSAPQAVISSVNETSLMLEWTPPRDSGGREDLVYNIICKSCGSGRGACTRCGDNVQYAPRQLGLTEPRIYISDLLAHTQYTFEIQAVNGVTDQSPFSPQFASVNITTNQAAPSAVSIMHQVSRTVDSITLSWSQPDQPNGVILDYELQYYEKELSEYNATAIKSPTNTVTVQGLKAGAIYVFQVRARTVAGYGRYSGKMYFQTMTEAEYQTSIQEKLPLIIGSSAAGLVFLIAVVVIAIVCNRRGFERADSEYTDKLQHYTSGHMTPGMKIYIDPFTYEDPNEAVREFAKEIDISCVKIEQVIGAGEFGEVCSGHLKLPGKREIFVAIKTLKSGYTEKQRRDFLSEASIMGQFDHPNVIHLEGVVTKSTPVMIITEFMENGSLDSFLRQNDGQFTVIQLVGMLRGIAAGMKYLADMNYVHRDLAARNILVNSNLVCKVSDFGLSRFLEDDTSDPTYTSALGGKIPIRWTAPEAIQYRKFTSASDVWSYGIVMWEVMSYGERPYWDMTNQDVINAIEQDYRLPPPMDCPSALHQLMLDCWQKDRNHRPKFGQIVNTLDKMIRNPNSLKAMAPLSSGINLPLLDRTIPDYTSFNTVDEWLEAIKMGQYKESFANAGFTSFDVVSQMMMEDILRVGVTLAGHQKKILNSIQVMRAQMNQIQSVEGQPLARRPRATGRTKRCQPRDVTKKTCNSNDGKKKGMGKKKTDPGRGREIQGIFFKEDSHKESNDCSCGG

In order of rising phosphorylation enrichment:
1. DPLLTHRFPPK [LMNA_Y481_Y481H]  0.242
2. KASGKYFAMKI [AKT3_Y173_YF]  0.338
3. HNLNYYKKTTN [FGFR3_Y648_D646N]  0.361
4. VGTKRYMASEV [ACVRL1_Y375_P378S]  0.364
5. SREDIYKRNTE [PDE4DIP_Y45_I49T]  0.416
6. GVTLLYFGRDN [ADGRD1_Y85_Y89D_YF]  0.424
7. HIAKGYRRDNP [HARS1_Y156_V155G]  0.429
8. KDFNKYVAFIE [KDM4B_Y31_YF]  0.429
9. NTVLGYFIGRI [GARS1_Y408]  0.44
10. KASIMYPSSNC [CXCL11_Y52_N55S]  0.48
11. KLRMESLSLMH [NCKIPSD_Y660_Y660S]  0.483
12. ITLKGYNLSNS [GNPTAB_Y728_K732N]  0.487
13. EHIEFYELDKK [PMM2_Y145_R141H]  0.492
14. FADIAYNYRHG [PAH_Y166]  0.503
15. RENGPYFASFP [GDAP2_Y487_T489A_YF]  0.534
16. WVFNHYRWIIW [BRCA2_Y2624_YF]  0.536
17. MFDKEYFSVHN [MET_Y1234_YF]  0.566
18. NWGSPYKSNGC [ZNF347_Y261]  0.569
19. GFSDPYVKAFL [SYT3_Y470_S474F]  0.577
20. QLRPGYFPIPV [BAG3_Y93_I94F]  0.585
21. CEHRGSLYLAI [TEK_Y897_Y897S]  0.585
22. FTNRNYDLDFD [MYC_Y12_YF]  0.587
23. QGIFGYHHFMQ [UFSP2_Y287_YF]  0.59
24. IMAYFYMCDSA [CASD1_Y382_R386S]  0.643
25. KQNSLYSFSDH [CCDC82_Y331]  0.651
26. RLMLQYDAVVN [SLC25A32_Y152]  0.703
27. MSSLFYANALF [HOXB7_Y6_T9A_YF]  0.755
28. MSRDVYSTDFF [NTRK2_Y702_YF]  0.774
29. LRRREYQRQDY [PRKRIP1_Y90]  0.786
30. NNKKDYFDMFE [SLC26A3_Y526_K521N_YF]  0.791
31. RTMPDYTSFNT [EPHB2_Y912_I909M]  0.961
32. MGSYNYLGFPR [SPTLC2_Y178_A182P]  2.77
33. HMEAVYIDIAD [PITPNA_Y140_V136M]  5.08

What follows are sequences tested against FGFR1 (UniProt P11362) in the same assay as above.
FGFR1, sequence (P11362 whole entry, looked up): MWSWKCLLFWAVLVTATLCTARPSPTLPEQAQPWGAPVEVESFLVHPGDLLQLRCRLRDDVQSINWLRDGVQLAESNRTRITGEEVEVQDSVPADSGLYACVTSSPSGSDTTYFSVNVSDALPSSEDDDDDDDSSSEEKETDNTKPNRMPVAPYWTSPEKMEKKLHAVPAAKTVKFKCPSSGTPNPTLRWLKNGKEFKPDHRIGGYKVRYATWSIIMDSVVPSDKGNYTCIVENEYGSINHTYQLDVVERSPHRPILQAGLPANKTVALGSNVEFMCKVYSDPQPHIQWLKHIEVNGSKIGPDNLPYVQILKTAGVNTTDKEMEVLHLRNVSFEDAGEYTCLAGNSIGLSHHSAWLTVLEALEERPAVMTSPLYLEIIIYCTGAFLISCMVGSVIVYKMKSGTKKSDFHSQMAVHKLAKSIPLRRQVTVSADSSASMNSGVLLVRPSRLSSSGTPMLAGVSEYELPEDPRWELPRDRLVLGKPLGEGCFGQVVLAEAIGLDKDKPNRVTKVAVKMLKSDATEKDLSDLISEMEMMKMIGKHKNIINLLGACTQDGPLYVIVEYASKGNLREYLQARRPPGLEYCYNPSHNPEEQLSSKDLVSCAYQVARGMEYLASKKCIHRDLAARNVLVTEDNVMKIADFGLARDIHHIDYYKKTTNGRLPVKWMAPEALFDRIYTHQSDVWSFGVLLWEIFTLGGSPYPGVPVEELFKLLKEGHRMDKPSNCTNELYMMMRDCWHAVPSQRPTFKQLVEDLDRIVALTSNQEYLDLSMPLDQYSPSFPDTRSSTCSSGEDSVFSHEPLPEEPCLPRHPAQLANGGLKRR

In order of falling phosphorylation enrichment:
1. HMEAVYIDIAD [PITPNA_Y140_V136M]  13.6
2. NNKKDYFDMFE [SLC26A3_Y526_K521N_YF]  5.31
3. MGSYNYLGFPR [SPTLC2_Y178_A182P]  2.29
4. IMAYFYMCDSA [CASD1_Y382_R386S]  2.24
5. MFDKEYFSVHN [MET_Y1234_YF]  1.84
6. MSRDVYSTDFF [NTRK2_Y702_YF]  1.06
7. RTMPDYTSFNT [EPHB2_Y912_I909M]  1.05
8. RENGPYFASFP [GDAP2_Y487_T489A_YF]  0.889
9. QGIFGYHHFMQ [UFSP2_Y287_YF]  0.838
10. CEHRGSLYLAI [TEK_Y897_Y897S]  0.609
11. QLRPGYFPIPV [BAG3_Y93_I94F]  0.593
12. MSSLFYANALF [HOXB7_Y6_T9A_YF]  0.58
13. FTNRNYDLDFD [MYC_Y12_YF]  0.561
14. GFSDPYVKAFL [SYT3_Y470_S474F]  0.535
15. LRRREYQRQDY [PRKRIP1_Y90]  0.532
16. ITLKGYNLSNS [GNPTAB_Y728_K732N]  0.525
17. KQNSLYSFSDH [CCDC82_Y331]  0.489
18. GVTLLYFGRDN [ADGRD1_Y85_Y89D_YF]  0.488
19. EHIEFYELDKK [PMM2_Y145_R141H]  0.487
20. NWGSPYKSNGC [ZNF347_Y261]  0.48
21. RLMLQYDAVVN [SLC25A32_Y152]  0.47
22. HNLNYYKKTTN [FGFR3_Y648_D646N]  0.468
23. DPLLTHRFPPK [LMNA_Y481_Y481H]  0.459
24. KASIMYPSSNC [CXCL11_Y52_N55S]  0.455
25. KLRMESLSLMH [NCKIPSD_Y660_Y660S]  0.453
26. WVFNHYRWIIW [BRCA2_Y2624_YF]  0.452
27. NTVLGYFIGRI [GARS1_Y408]  0.443
28. SREDIYKRNTE [PDE4DIP_Y45_I49T]  0.411
29. VGTKRYMASEV [ACVRL1_Y375_P378S]  0.411
30. FADIAYNYRHG [PAH_Y166]  0.403
31. KDFNKYVAFIE [KDM4B_Y31_YF]  0.399
32. KASGKYFAMKI [AKT3_Y173_YF]  0.347
33. HIAKGYRRDNP [HARS1_Y156_V155G]  0.33
